Measured values published in publication PMC10105285 (Cell reports, 2023).

Target: T1, FLAG-tagged human LMAN1, wild type (pED-FLAG-LMAN1) (human, UniProt P49257 31-510)
T1 sequence (looked up): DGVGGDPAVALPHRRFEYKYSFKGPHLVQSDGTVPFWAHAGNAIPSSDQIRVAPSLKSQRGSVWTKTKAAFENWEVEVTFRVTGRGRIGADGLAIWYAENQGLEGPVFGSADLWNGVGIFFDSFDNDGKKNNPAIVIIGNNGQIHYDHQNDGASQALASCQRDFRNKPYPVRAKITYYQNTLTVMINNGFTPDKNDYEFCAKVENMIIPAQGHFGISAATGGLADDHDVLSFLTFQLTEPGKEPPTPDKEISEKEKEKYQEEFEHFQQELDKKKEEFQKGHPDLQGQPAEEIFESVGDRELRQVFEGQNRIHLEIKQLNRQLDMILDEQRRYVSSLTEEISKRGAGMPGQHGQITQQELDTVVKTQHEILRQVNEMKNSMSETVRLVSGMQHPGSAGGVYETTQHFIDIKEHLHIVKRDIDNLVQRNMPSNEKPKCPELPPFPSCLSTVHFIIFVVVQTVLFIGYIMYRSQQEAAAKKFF
Assay: flow cytometry on cells

binding result: binds
B1: Der p 1 (Dermatophagoides pteronyssinus major mite allergen 1), biotinylated (natural protein, UniProt P08176 99-320, looked up)
chain: TNACSINGNAPAEIDLRQMRTVTPIRMQGGCGSCWAFSGVAATESAYLAYRNQSLDLAEQELVDCASQHGCHGDTIPRGIEYIQHNGVVQESYYRYVAREQSCRRPNAQRFGISNYCQIYPPNVNKIREALAQTHSAIAVIIGIKDLDAFRHYDGRTIIQRDNGYQPNYHAVNIVGYSNAQGVDYWIVRNSWDTNWGDNGYGYFAANIDLMMIEEYPYVVIL
modifications: biotinylated
